Substitutions are numbered along the chain they refer to. In names and notes the source's numbering stands.
Columns and labels:
C[C@H](O)C(=O)O [1] = test: steady-state initial rates; format: biochemical, Aerococcus viridans; conditions: pH 6.5, 20 °C, air-saturated (250 μM O2), 50 mM potassium phosphate
C[C@H](O)C(=O)O [2] = test: purified protein; conditions: pH 6.5, 20 °C, air-saturated (250 μM O2), 50 mM potassium phosphate
[3] = target: T1, avLOX (Aerococcus viridans L-lactate oxidase) (Aerococcus viridans, UniProt Q44467); test: stopped-flow anaerobic FMN reduction, […] nm, hyperbolic fit; format: biochemical; conditions: pH 5.5, 20 °C, 50 mM potassium phosphate, read-out: Enzyme / Wild-type avLOX / Reaction pH / 5.5
T1 construct: wild type from Roche (grade 1, lyophilized); Y215 variants from plasmid pLO-1 in E. coli BL21 (DE3), no tag stated; missing residues 1-7 modeled for simulation only
T1 sequence (Q44467 1-374): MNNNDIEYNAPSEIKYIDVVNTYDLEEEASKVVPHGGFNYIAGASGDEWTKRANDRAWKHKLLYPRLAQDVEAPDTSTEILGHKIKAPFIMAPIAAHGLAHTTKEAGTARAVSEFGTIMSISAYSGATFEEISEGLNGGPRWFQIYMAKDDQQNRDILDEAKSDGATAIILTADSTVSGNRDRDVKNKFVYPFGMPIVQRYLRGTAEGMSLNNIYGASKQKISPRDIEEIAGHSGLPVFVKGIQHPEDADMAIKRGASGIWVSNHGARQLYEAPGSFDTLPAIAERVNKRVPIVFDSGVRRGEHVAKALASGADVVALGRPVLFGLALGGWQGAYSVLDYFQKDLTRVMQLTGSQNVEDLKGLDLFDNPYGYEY

purified protein = substrate: C[C@H](O)C(=O)O; test: purified protein; conditions: pH 6.5, 20 °C, air-saturated (250 μM O2), 50 mM potassium phosphate; remark: listed apart in the source
[4] = target: the molecule itself; test: crystal structure; hanging drop vapor diffusion, 20 °C; 10 mg/mL protein in 50 mM potassium phosphate pH 7.0 mixed with 30% polyethylene glycol, 50 mM Tris-HCl pH 8.0, 50 mM pyruvate; spacegroup P2_(1), 2.6 Å

avLOX (Aerococcus viridans L-lactate oxidase) (Aerococcus viridans ATCC 11563 = CCUG 4311; Y215F)
Km (C[C@H](O)C(=O)O [1]): 130 ± 10 µM
kcat (C[C@H](O)C(=O)O [1]): 22 ± 2 s⁻¹

avLOX (Aerococcus viridans L-lactate oxidase) (Aerococcus viridans ATCC 11563 = CCUG 4311; Y215H)
Km (C[C@H](O)C(=O)O [2]): 520 ± 120 µM

C[C@H](O)C(=O)O [L-lactate]
Kd [3]: 3 ± 0.4 mM

B1: avLOX (Aerococcus viridans L-lactate oxidase) (Aerococcus viridans ATCC 11563 = CCUG 4311) (protein)
chain: T1 sequence (Q44467 1-374)
Km (purified protein): 500 ± 100 µM
kcat (purified protein): 88 ± 2 s⁻¹

B2: Aerococcus viridans L-lactate oxidase Y215F variant (enzyme)
chain: T1 sequence (Q44467 1-374) with Y215F
notes: also called Y215F avLOX; avLOX Y215F mutant
stoichiometry N [4]: 4

Source: article PMC4908395, “Conformational flexibility related to enzyme activity: evidence for a dynamic active-site gatekeeper function of Tyr^215 in Aerococcus viridans lactate oxidase” (Scientific Reports, 2016)
